T1: BabAgo (short pAgo subunit of BabSPARTA);BabTIR-APAZ (subunit of BabSPARTA) (Bacillales bacterium;Bacillales …, UniProt PDB:8QLP_2;PDB:8QLP_1 1-507;1-452, |)
T1 sequence 1: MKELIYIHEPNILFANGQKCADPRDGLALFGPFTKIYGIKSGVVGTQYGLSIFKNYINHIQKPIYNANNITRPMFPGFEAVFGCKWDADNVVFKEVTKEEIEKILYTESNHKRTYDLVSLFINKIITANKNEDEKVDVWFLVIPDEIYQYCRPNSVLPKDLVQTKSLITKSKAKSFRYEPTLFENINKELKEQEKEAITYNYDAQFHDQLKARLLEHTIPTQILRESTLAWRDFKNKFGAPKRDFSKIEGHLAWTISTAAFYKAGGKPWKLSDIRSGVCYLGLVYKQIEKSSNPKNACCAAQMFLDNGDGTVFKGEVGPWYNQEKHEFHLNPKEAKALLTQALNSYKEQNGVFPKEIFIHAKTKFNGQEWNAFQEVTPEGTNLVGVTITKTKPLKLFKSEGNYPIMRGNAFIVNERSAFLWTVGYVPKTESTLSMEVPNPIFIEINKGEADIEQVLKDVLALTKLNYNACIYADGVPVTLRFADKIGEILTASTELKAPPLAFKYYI
T1 sequence 2: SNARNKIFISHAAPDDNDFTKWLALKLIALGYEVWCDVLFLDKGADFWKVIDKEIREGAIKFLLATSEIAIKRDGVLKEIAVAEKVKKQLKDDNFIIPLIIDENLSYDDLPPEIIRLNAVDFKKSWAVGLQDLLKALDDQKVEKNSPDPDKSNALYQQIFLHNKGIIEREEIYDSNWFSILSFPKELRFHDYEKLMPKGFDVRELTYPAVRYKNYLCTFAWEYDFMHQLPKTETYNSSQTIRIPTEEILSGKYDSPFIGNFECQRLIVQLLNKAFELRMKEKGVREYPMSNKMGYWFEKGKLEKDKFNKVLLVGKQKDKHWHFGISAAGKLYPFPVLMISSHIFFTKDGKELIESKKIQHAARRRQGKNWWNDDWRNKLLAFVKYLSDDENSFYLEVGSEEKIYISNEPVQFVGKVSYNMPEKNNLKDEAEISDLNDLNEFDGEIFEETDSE

B1: guide RNA oBK084 / target DNA oBK382 (DNA:RNA)
RNA: UGACGGCUCUAAUCUAUUAGU
DNA: CAACTAATAGATTAGAGCCGTCAAT
modifications: 5'-phosphate on guide RNA

Tests used:
[1] = biological target: BabSPARTA complex (BabAgo:BabTIR-APAZ heterodimer) (Bacillales bacterium); assay: cryo-EM structure
[2] = biological target: T1, BabAgo (short pAgo subunit of …); assay: cryo-EM structure

Row | Molecule | stoichiometry N [1] | binding result [2]
1 | BabSPARTA complex (BabAgo:BabTIR-APAZ heterodimer) | 4 | 
2 | B1 |  | binds

From PMC10899771
